Measurements as given in publication PMC2827695 (Journal of the American Society for Mass Spectrometry, 2009).

Target: T1, IFNAR1 (UniProt P17181 28-436)
T1 sequence (looked up): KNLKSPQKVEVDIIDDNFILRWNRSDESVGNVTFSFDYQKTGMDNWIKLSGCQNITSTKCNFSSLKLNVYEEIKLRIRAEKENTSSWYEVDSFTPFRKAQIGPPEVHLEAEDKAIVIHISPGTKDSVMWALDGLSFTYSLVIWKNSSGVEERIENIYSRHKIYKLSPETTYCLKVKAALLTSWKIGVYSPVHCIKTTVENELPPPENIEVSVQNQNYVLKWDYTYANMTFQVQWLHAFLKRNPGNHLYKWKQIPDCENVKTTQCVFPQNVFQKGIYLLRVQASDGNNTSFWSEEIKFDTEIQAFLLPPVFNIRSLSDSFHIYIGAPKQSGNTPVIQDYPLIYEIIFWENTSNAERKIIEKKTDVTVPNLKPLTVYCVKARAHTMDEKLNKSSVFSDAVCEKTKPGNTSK
Assay: native MS

B1: Interferon-β1a (ligand, UniProt P01574 22-187, looked up)
chain: MSYNLLGFLQRSSNFQCQKLLWQLNGRLEYCLKDRMNFDIPEEIKQLQQFQKEDAALTIYEMLQNIFAIFRQDSSSTGWNETIVENLLANVYHQINHLKTVLEEKLEKEDFTRGKLMSSLHLKRYYGRILHYLKAKEYSHCAWTIVRVEILRNFYFINRLTGYLRN
modifications: glycoprotein with a carbohydrate chain, several glycoforms (glycosylation site printed as Asn-90)
B1 was tested. Which “stoichiometry N” value did it give?
Its value is 1.
